Experimental data: the DeepSol protein solubility set

Test: soluble on expression in E. coli; label from the status in PepcDB or PDB records

Sequence | soluble on expression in E. coli
MGSDKIHHHHHHMAVITISREMGTGAYQIAREVAKRLKHTLVDGNKIAELAPRYGLDKELLKRVDEKPPVYITAEDRMHAAHLNTIEIIILDCVKQGNVILYGRGAQDLLSDVENILRIRFIAPFEHRVENFSEREWIDPDLARELIRKSDHQRGGFIHFYFNRDWNDSLGYDLTFNTERMSQSAIIESIIAAAKDSRLKEGEERLKQVIDETILAKKVETAFLKSGDIEYIHFRISVSGKVVSFSGHVHSEAEKREAIRLATAVEGVERVEGDLQVLNYKSHKG | not soluble
MAEITEVRIYKSKGNGSVKAYASVSFDNEFVVKGLKVVEGEKGLWVSMPSRRMKDGSFQDVFHPVSREARDKIVDAVLKAYQEQE | not soluble
MGSDKIHHHHHHMTNNRLERFAHNLDWNLLRTFVVVVEEGSITAAANRLLLQQPAVSMALKRLEQTIGQKLIDRRPGRFDLTEAGEKLHLQCRDIFAAVIRLPHVLETAGEEITGHLNIHAVSHAHNPAWDRKLGSFFRMHPKVTISMTVATTVDVLSAVERNIATMGLCDGIIPEGLNKSFHIRERYALYCGRGHRLFGVEGVVFHDLRGDPYIAFIADVLGGQHMNSVTAVRAVGSFGQQVRGVSCNVEEVMRLIAANVGIGMLPDHIASEAVAAGDLWQLPPYRDLPTTDVFRISNPNSILNPAEAAFLAHVADTQALDHCHHQQD | not soluble
TKDFSWNSDFIFSHAKNEVTDLRGRTRMMELVSGNGFAREGYPVRGLFSIPFAGLDEKGIPMFDINGNITSTDINFQEREKLDYLKYEGPTDPTITGSFGNVFAYKGFKLNVFMTYSFGNVVRLNPYFNYKYSDLSAMPREFKNRWTLSGDEAKTNIPAILSNPQYEANRTLYKAYNAYNYSTERIAKGDFIRMKEISLSYEFPKSWISAAKISNLSLKLQATNLFLIYADKKLNGQDPEFFNTGGVASPVPRQFTLTLRLGL | not soluble
MTARIYKPAKNAMQSGTAKTREWQLDYEPETPRTIEPLMGWTSSSDMQQQVSLRFHTRDEAVAYCEREGIPYQLIEPKEPVRRRAAYADNFAFRRPEPWTH | soluble
GPGSMTGRTSSVSENHLGFSAEGGVVNYALLQPHRTEAERRPLAPSEVAQHLMASAAAASGATHSATGGSGAHTMRQCTPKELATRSSKVVTLYDLAGHERYLKTTVLGMTRNMPDYACIVISANNGIQRMTKEHLALCLALKLPFFIVVTRIDSTPPNIHDETLSNIHKLLKIPTVRKLSYPVRRHDEVTLAAKNCAMIALPRSSKSATLPVLASLTYCNSLTYSRLGRTGGRRATCQRR | not soluble
MVKIAIITYSTYGHIDVLAQAVKKGVEAAGGKADIYRVEETLPDEVLTKMNAPQKPEDIPVATEKTLLEYDAFLFGVPTRFGNLPAQWSAFWDKTGGLWAKGSLNGKAAGIFVSTSSYGGGQESTVKACLSYLAHHGIIFLPLGYKNSFAELASIEEVHGGSPWGAGTLAGPDGSRTASPLELRIAEIQGKTFYETAKKLFPAKEAKPSTEKKTTTSDAAKRQTKPAAATTAEKKEDKGLLSCCTVM | soluble
MGEETRRQERRIDAEKRAVSSLLFRIIRSHSTPVANSTASDEATAAAAAGQQNFASRKRRETKKREKSSSSCVSHCFLVMGHGKAFVF | not soluble
MEKKIGFIGCGNMGKAILGGLIASGQVLPGQIWVYTPSPDKVAALHDQYGINAAQSAQEVAQVADIVFGAVKPGIMVKVLSEISSSLNKDSLVVSIAAGVTLDQLARALGHDRKIIRAMPNTPSLVNAGMTSVTPNALVTPEDTADVLNIFRCFGGAEVIAEPMIHPVVGVSGSSPAYVFMFIEAMADAAVLGGMPRAQAYKFAAQAVMGSAKMVLETGKHPGELKDMVCSPGGTTIEAVRVLEERGFRAAVIEAMTKCMEKSEALSKSLEHHHHHH | soluble
MHHHHHHSSGVDLGTENLYFQSMKICSIALVGKYTKLRDCYASVFKALEHSALAINHKLNLMYIDSIDLEKITETEDPVKFHEAWQKLCKADGILVPGGFGIRGTLGKLQAISWARTKKIPFLGVCLGMQLAVIEFARNCLNLKDADSTEFRPNAPVPLVIDMPEHNPGNLGGTMRLGIRRTVFKTENSILRKLYGDVPFIEERHRHRFEVNPNLIKQFEQNDLSFVGQDVDGDRMEIIELANHPYFVGVQFHPEFSSRPMKPSPPYLGLLLAATGNLNAYLQQGCKLS | soluble
MSLKQEKERILKLVEEGKLTAQEALTLIEKLDSDYKEKEEKITALSVHVHDEEEPFTTAKKESGKPSLGAKLFDWIDSAVKKVKEVDLDLNFGHAYDVQHIFQFKDTDFSSVELQIANGSVNIVPWEDDDIRAECQAKVYRADSQDAARHAFLQHIECEIKGNKFFIRTEKKTMKTNVTLYIPQKEYDKIRVKLFNGPVRGEHLHVKEFSAKTTNGVLSFSYLTAEKAIAETANGQIKLASHSCGTIEAETINGLIDLRGKSESIDVQSFNGNIAINVTESDCRSIYAKTTTGNVELAIPDDLAVKAELKSNLGTLSHELMDVEMLKEKNDTIQKEMMFTSNQAHDQNITVFSESLTGAIKLKYSQREGGSHHHHHH | soluble
MQARVKWVEGLTFLGESASGHQILMDGNSGDKAPSPMEMVLMAAGGCSAIDVVSILQKGRQDVVDCEVKLTSERREADTRLFTHINLHFIVTGRDLKDAAVARAVDLSAEKYCSVALMLEKAVNITHSYEVVAA | soluble
MCMPLLPGEQQHLLIDRLEKRVPTAAGEGATTKL | not soluble
MDEEASRTARESLELVFRMSNILDTGLDRHTLSVLIALCDLGVNPEALATVVKELRRESIPDSVTTTPSIH | soluble
MGSDKIHHHHHHMKVSTISIDLAKNVFQLLGMDKHAKQVFSKRLNRTQLSEFMSQQPVCDVVFEACYSSHYWGRKFLAMGHNVKLIPAQHVTPFVRGSKNDKNDAMAIYEANFRPNIRFVPIKTEAQQEILMLHRVRERLVKQRTACTNQIRGVLVDFGICFPQGHSAFERAMWDIINDESQRPIIKLMANDFWDEYQTVSTRLDRINRLIKQLVEQDPNGKILLSIPGVGPIIASAFAAAIGAGQAFNSAKELAVWLGLTPQQFASGNKSINGSITKRGDGYLRKQLIHGARTVVSHASKKNDDLNQWITQLRNRKSICTTVVATAHRLARLMWILLHKQVPYAPQYGAYQGISHEAN | not soluble
MAHHHHHHMGKNETDTDVLTSNVEVGSVLSQCAESRVHECNFYGYRAVCKHRFPKAYRHPALDQRLREQRTVREGRALARCLKNGVLAPTVFAVDRERCAIVMERIDGLTVREIFNHEQGNVAQGKTDVSFLVSFLLRGMGEVVGLLHNADIIHGDLTTSNFMCKRNFLERRLSTENLASNTSSRDSIVVLDFGLVMDKNSAEERAVDLYVLERALKSSHPFLEHVATRLVLEGYHRTVDPQKGSVTMARLEAVRARGRKRSMIG | not soluble
MGSDKIHHHHHHMDITALQQQLELIQQNDYTQLRHIDINELTLHMLQYIGTTDSYVRYQLIYKCFVHFIHHEFLMDDQLKLLLQTCLSDEYLYCDIYSPHSDGVFTRSYTVSLIALILQFANSHYFCTEEDIEEIKNKLITYTNLETDFRGYIENKGWAHCLAHVSDAFTEIVHNSYTTFEWYEELIHCLLNKIFIPSDLFHNNEDERIVTPLLAMLYHDFPQDELISIIQKKIKRLPQIRKRLSLNEYCILCANIKTFLRTLFFRTKDDHNLAFTARKTERMLKELPNYY | not soluble
GRKQEPFENVTLDVEEQHQGSVMQALGERKGDLKNMNPDGKGRVRLDYVIPSRGLIGFRSEFMTMTSGTGLLYSTFSHYDDVRPGEVGQRNNGVLISNGQGKAVAFALFGLQDRGKLFLGHGAEVYEGQI | not soluble
MANLATVERYVSAAAQRGADMVVFPEATMQGFGTGRLDRVAERIDGPFATRICQLARELNIVIVVGMFSPADTHDGKQRINNVALIAHPDSVREYRKIHTYDAFGFKESDTVRPGNQLVTFPVGDVTCGIAVCYDVRFPQQFIDLARLGAEVIVLPASWADGEGKLEQWRTLTAARALDSTSYIVACDQAVAEDERAPGAPTGVGHSAVVTPDGRRIAEAGTGEELFMVNVNRDLVRRTREAIPVLADAGYNQNGE | not soluble
MTSQTAFDLIFRNTLLRSSAAPVDIGVKGGRIAAIEPGLTCEAVEVDVGGHLALPGFVDTHIHLDKACLLGRCGHNHGSVSEAIRAVAGMKKDFTVEDVYARGARVLERAIVHGTTRMRTHVEIDPRIGLRGFEAVKALKRDYAWAIDLSLCVFPQEGLTNDPGAEDLLIQALRDGGETIGGCPYMDTDPNTHLERIFNLAQEFDVDVDLHLDFDLDPSWWHLDEVCRQTERRNYGGRVAVGHATKLSALPPEPLKAATAQLAKAGVAVTVLPATDLYLMGREATHNAPRGLTLAHKLAGDGVLCSVATNNVLNPFTPFGDASLLRMANFYANVAHASVSDFDICLDLVTELPARLMNLGDYGIKVGNPADLIVLDTQDSRFAIAELPDVMMGFKAGRQTFARQRPTLFSPGR | soluble
MSFSADALEGGLSSLKLAADKYRSILNDEKTGNIRWRYGGPPIFDTVNKLFEEERTHVQWRYDNPPDFNSVNQLFEEGQTKVWPEGSLEETVQNAIKSWEMEFSHKIRLQDFKTINPEKFKLFVNGREGLSAEETLRLGSYNALLKNSLPEEFQYYKPEEESFESSHDAFRSALPRGFAWEILSVYSGPPVIAFKFRHWGYFEGTFKGHAPTGEMVQFLGLGVLKVDESLRAEEIEIYYDPGELFGGLLKGPPISETKTTDSGDNTAEKQSCPFTH | soluble
MGSDKIHHHHHHMFSKIEFKNFMSFSNLTFDLLNRGKCKDIIAIYGENGSGKTNIVEAFKLLVLSLQSMESLNENTRLQSLLKEQTNKEENQKTNFGDISEILDKISFFTTFKGIAKNTHRIASEGNTILKYYFNIEKDNGYYLLEYNENNELVKEELVFKIKSNKGVHFSITNIDGLSQSLNKTIFKNTIFKDLTEQIEKYWGKHTFLSIFNNYCLEVNEEFINEQVSINFQKVVDEFDKIFIWSGNFRGPFHSTELLLKDISKGKIDKSEKEKLSYTEEIIYKYFSALYIDIKDVKYKQDAQGQEIKYELMIRKNIGGDLLDVPISLESQGTKNLLDLLKVFNNVLDGKICIVDEIDSGIHDLLMNSILNDLKGSVNGQLIFTTHDTTLLKELSPSSAYFLNVDIKGNKVIISGNEADKKIGVNNNLEKLYLSGFFGAVPDPLDIDFSDLFLDHNLSED | not soluble
MGSDKIHHHHHHTPLPPVKQPHPATSQQHQEPVRGVWLATVSRLDWPPVTSVNTNSPAIRITQQQEALKGKLDKLKSLGINTVFFQIKPDGTALWPSKILPWSDMMTGHIGEDPGYDPLQFMLDEAHKRGMKVHAWFNPYRVSVNTKSGTVAELNRTLSQNPASVFVLHRDWIRTAGDRFVLDPGIPEARNWITSIVAEVVARYAIDGVQFDDYFYAESPGSVLNDGETFKKYGQGFGSKADWRRHNTQQLIEQVSRTIKQLKPEVEFGVSPAGVWRNRSHDAAGSDTRGAAAYDEAYADTRLWVQQGLLDYIAPQLYWPFARDAARYDVLAKWWADVVKPTSTRLYIGVALYKVGEPSKNEPDWMISGGVPELKKQLDLNESTPHIDGTILFRENYLNQPQTQEAVNYLRNRWNPI | not soluble
MGSDKIHHHHHHMMVPHLTTALTGPLLTLEKRLLDNMPRIEHWFRSQWQEYGAPFYASVDLRNAGFKLAPVDTNLFPGGFNNLNPDFLPLCIQAAMVAVEKICPDARRLLLIPENHTRNTFYLRNVHALTHILRQAGLEVRIGSIAPEITAPTFLETHDGHSILLEPVRRKANRLELDNFDSCAILLNNDLSGGIPDILQGLEQSLIPPLHAGWATRRKSNHFTAYDRVVEEFAPLIDIDPWLLNPYFDTCGGLDFHARLGEEQLAEKVDSLLAKIRRKYAEYGVKQEPFVIVKADAGTYGMGIMTVKSADDVRDLNRKQRNKMSVVKEGLKVSEVILQEGVYTFEHLKDAVAEPVIYMMDHFVVGGFYRVHTSRGADENLNAPGMHFEPLTFETPCSTPDCAGAPDAAPNRFYAYGVVARLALLAATIELQETDPDLLDERT | not soluble
